In patent publication US6759384 (AVENTIS PHARMACEUTICALS, dated 2004) one finds Ki data, which are given here for 50 molecules.

First the molecules themselves.
B1: Ac-Y-I-R-L-A-A-F-T-NH2 (peptide)
peptide: Ac-YIRLAAFT-NH2
B2: F-I-R-L-Y-V-W-N-NH2 (peptide)
peptide: FIRLYVWN-NH2
B3: G-Y-I-R-D-NH2 (peptide)
peptide: GYIRD-NH2
B4: G-Y-I-R-Y-NH2 (peptide)
peptide: GYIRY-NH2
B5: G-Y-I-R-W-NH2 (peptide)
peptide: GYIRW-NH2
B6: G-Y-I-R-V-NH2 (peptide)
peptide: GYIRV-NH2
B7: G-Y-I-R-F-NH2 (peptide)
peptide: GYIRF-NH2
B8: G-Y-I-R-S-NH2 (peptide)
peptide: GYIRS-NH2
B9: CF3-CF2CO-Y-I-R-L-P-NH2 (peptide)
peptide: {CF3‑CF2CO}-YIRLP-NH2
B10: Ac-Y-I-{ψ(CH2NH)}-R-L-P-NH2 (peptide)
peptide: Ac-YIRLP-NH2
modifications: also: reduced pseudo peptide bond ψ(CH2NH) between I2 and R3
B11: Ac-Y-I-R-L-P-Dab(Ac-Y-I-R-L-P)-OH (peptide)
peptide: Ac-YIRLP[Dab]-OH
chain: Ac-YIRLP
modifications: also: branched: chain 2 attached to the Dab6 side-chain N
notes: branched peptide
B12: D-Tic-I-R-L-A-A-F-T-NH2 (peptide)
peptide: [dTic]IRLAAFT-NH2
modifications: N-terminus assumed
SMILES: CC[C@H](C)[C@H](NC(=O)[C@H]1Cc2ccccc2CN1)C(=O)N[C@@H](CCCNC(=N)N)C(=O)N[C@@H](CC(C)C)C(=O)N[C@@H](C)C(=O)N[C@@H](C)C(=O)N[C@@H](Cc1ccccc1)C(=O)N[C@H](C(N)=O)[C@@H](C)O
B13: CClF2-CO-Y-I-R-L-P-NH2 (peptide)
peptide: {CClF2‑CO}-YIRLP-NH2
B14: Ac-Y-I-PalMe(3)-L-P-NH2 (peptide)
peptide: Ac-YI[Ala(1-Me-3-pyridinium)]LP-NH2
SMILES: CC[C@H](C)[C@H](NC(=O)[C@H](Cc1ccc(O)cc1)NC(C)=O)C(=O)N[C@@H](Cc1ccc[n+](C)c1)C(=O)N[C@@H](CC(C)C)C(=O)N1CCC[C@H]1C(N)=O
B15: (pOH)C6H4-CH2CH2CO-I-R-L-A-NH2 (peptide)
peptide: {(pOH)C6H4‑CH2CH2CO}-IRLA-NH2
B16: (pOH)C6H4-CH2CH2CO-I-R-L-P-NH2 (peptide)
peptide: IRLP
modifications: N-term (pOH)C6H4-CH2CH2CO; C-term NH2
B17: (pOH)C6H4-OCH2CO-I-R-L-P-NH2 (peptide)
peptide: {(pOH)C6H4‑OCH2CO}-IRLP-NH2
B18: (pOH)C6H4-CH2CHOH-CO-I-R-L-P-NH2 (peptide)
peptide: {(pOH)C6H4‑CH2CHOH‑CO}-IRLP-NH2
B19: Ac-Y-{ψ(CH2NH)}-I-R-L-P-NH2 (peptide)
peptide: Ac-YIRLP-NH2
modifications: also: reduced pseudo peptide bond ψ(CH2NH) between Y1 and I2
B20: CH3-SO2-Y-I-R-L-P-NH2 (peptide)
peptide: {CH3‑SO2}-YIRLP-NH2
B21: Cl2CHCO-Y-I-R-L-P-NH2 (peptide)
peptide: Cl2CHCO-YIRLP-NH2
B22: CH3O-CO-Y-I-R-L-P-NH2 (peptide)
peptide: {CH3O‑CO}-YIRLP-NH2
B23: G-Y-I-R-L-P-A-M-NH2 (peptide)
peptide: GYIRLPAM-NH2
B24: Ac-Y-I-R-L (peptide)
peptide: Ac-YIRL
B25: Tfa-(iBu)Y-I-R-G-NH2 (peptide)
peptide: Tfa-[N(iBu)Y]IRG-NH2
B26: Ac-Y-I-R-I (peptide)
peptide: Ac-YIRI
B27: F-I-R-L-N-H2 (peptide)
peptide: FIRL-NH2
notes: probably F-I-R-L-NH2
B28: Ac-Y-N-R-L-NH2 (peptide)
peptide: Ac-YNRL-NH2
B29: Y-I-R-I-NH2 (peptide)
peptide: YIRI-NH2
B30: CF2H-CO-Y-I-R-L-P-NH2 (peptide)
peptide: {CF2H‑CO}-YIRLP-NH2
B31: CH3-CHCl-CO-Y-I-R-L-P-NH2 (peptide)
peptide: {CH3‑CHCl‑CO}-YIRLP-NH2
B32: For-Y-I-R-L-P-NH2 (peptide)
peptide: For-YIRLP-NH2
B33: Ac-Y-K-R-L-E-NH2 (peptide)
peptide: Ac-YKRLE-NH2
modifications: also: cyclisation unknown (underlining lost)
notes: may be cyclic; underlining lost
B34: CH3CH2-O-CO-Y-I-R-L-P-NH2 (peptide)
peptide: {CH3CH2‑O‑CO}-YIRLP-NH2
B35: F-I-R-L-P-H-Y-G-NH2 (peptide)
peptide: FIRLPHYG-NH2
B36: E-Y-I-R-L-K-NH2 (peptide)
peptide: EYIRLK-NH2
modifications: also: cyclisation unknown (underlining lost)
notes: as for B33
B37: G-Y-I-R-L-P-P-V-NH2 (peptide)
peptide: GYIRLPPV-NH2
B38: Ac-y-I-R-L-P-NH2 (peptide)
peptide: YIRLP
modifications: N-term Ac; D-Tyr at 1; C-term NH2
B39: G-G-Y-I-R-G-NH2 (peptide)
peptide: GGYIRG-NH2
B40: G-Y-I-R-L-P-S-Q-NH2 (peptide)
peptide: GYIRLPSQ-NH2
B41: Ac-Y-{ψ(CH2N(Ac))}-I-R-L-P-NH2 (peptide)
peptide: Ac-YIRLP-NH2
modifications: also: pseudo peptide bond ψ(CH2N(Ac)) between Y1 and I2
B42: For-y-I-R-L-P-NH2 (peptide)
peptide: For-[dY]IRLP-NH2
B43: F(pCl)-I-R-I-Sar-NH2 (peptide)
peptide: [Phe(4-Cl)]IRI[Sar]-NH2
modifications: N-terminus assumed
SMILES: CC[C@H](C)[C@H](NC(=O)[C@@H](N)Cc1ccc(Cl)cc1)C(=O)N[C@@H](CCCNC(=N)N)C(=O)N[C@H](C(=O)N(C)CC(N)=O)[C@@H](C)CC
B44: βAla-Y-I-R-G (peptide)
peptide: [βAla]YIRG
modifications: also: cyclisation unknown (underlining lost)
notes: as for B33
B45: C-Y-I-R-L-C-NH2 (peptide)
peptide: CYIRLC-NH2
modifications: also: cyclisation unknown (underlining lost)
notes: may be cyclic (disulfide); underlining lost
B46: βAla-Y-I-R-G-NH2 (peptide)
peptide: [βAla]YIRG-NH2
modifications: N-terminus assumed
SMILES: CC[C@H](C)[C@H](NC(=O)[C@H](Cc1ccc(O)cc1)NC(=O)CCN)C(=O)N[C@@H](CCCNC(=N)N)C(=O)NCC(N)=O
B47: G-Y-I-R-L-P-Q-T-NH2 (peptide)
peptide: GYIRLPQT-NH2
B48: E-Y-I-R-L-P-K-NH2 (peptide)
peptide: EYIRLPK-NH2
modifications: also: cyclisation unknown (underlining lost)
notes: as for B33
B49: F(pF)-I-R-L-P-NH2 (peptide)
peptide: [Phe(4-F)]IRLP-NH2
modifications: N-terminus assumed
SMILES: CC[C@H](C)[C@H](NC(=O)[C@@H](N)Cc1ccc(F)cc1)C(=O)N[C@@H](CCCNC(=N)N)C(=O)N[C@@H](CC(C)C)C(=O)N1CCC[C@H]1C(N)=O
notes: also called Phe(pF)-I-R-L-P-NH
B50: Et(Et)Y-I-R-L-P-NH2 (peptide)
peptide: XIRLP
modifications: N,N-diethyl (Et(Et)) on Y1; C-term NH2

Non-standard residues stand in square brackets, D forms with d. No end group written: not given here. *: point of attachment. (pOH)C6H4‑CH2CHOH‑CO = N-terminal acyl cap: 4-hydroxyphenyl-CH2-CH(OH)-C(=O)- (4-hydroxyphenyllactyl); Ala(1-Me-3-pyridinium) = C[n+]1cccc(C[C@H](N)C(=O)O)c1; Phe(4-Cl) = N[C@@H](Cc1ccc(Cl)cc1)C(=O)O; Phe(4-F) = N[C@@H](Cc1ccc(F)cc1)C(=O)O; dTic = O=C(O)[C@H]1Cc2ccccc2CN1; Dab = NCC[C@H](N)C(=O)O; Tfa = O=C(C(F)(F)F)*; βAla = NCCC(=O)O; Sar = CNCC(=O)O; For = O=C* Where only a bound is given, the exact number is not on record here.

The target of the test is human factor Xa (Enzyme Research Laboratories, Inc.) (human, UniProt P00742 41-179; P00742 235-488, limits assumed). Kind of test: chromogenic FXa inhibition. As for the experimental part: TBS-P buffer (50 mM Tris-Cl, pH 7.8, 200 mM NaCl, 0.05% (w/v) PEG-8000, 0.02% (w/v) NaN_3) was used for this assay. The IC$50$ was determined by combining in appropriate wells of a Costar half-area microtiter plate 25 μl human factor Xa (Enzyme Research Laboratories, Inc.; South Bend Ind.) in TBS-P; 40 μl 10% (v/v) DMSO in TBS-P (uninhibited control) or various concentrations of a peptide to be tested diluted in 10% (v/v) DMSO in TBS-P; and substrate S-2765 (Nα-benzyloxycarbonyl-D-Arg-Gly-L-Arg-p-nitroanilide; Kabi Pharmacia, Inc.; Franklin Ohio) in TBS-P.
Sequence of human factor Xa (Enzyme Research Laboratories, Inc.) (P00742 41-179 limits assumed, chain 1 of 2): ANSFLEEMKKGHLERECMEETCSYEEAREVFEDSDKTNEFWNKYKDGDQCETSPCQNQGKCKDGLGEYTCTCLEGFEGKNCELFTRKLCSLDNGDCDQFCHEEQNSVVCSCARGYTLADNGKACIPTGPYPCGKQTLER
Sequence of human factor Xa (Enzyme Research Laboratories, Inc.) (P00742 235-488 limits assumed, chain 2 of 2): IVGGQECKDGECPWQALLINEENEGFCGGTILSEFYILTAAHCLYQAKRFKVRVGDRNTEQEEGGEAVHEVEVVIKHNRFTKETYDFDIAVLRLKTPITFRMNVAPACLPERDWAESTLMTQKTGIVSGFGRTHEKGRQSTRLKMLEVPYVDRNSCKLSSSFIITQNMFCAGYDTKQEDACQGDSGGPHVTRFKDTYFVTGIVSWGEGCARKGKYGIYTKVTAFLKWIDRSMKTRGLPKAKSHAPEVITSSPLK
The assays were performed by pre-incubating the peptide inhibitor plus enzyme for 10 min, then the assay was initiated by adding substrate to obtain a final volume of 100 μl. The initial velocity of chromogenic substrate hydrolysis was measured by the change in absorbance at 405 nm using a Bio-tek Instruments kinetic plate reader (Ceres UV900HDi) at 25° C. during the linear portion of the time course (usually 1–5 min after addition of substrate). The concentration of inhibitor that caused a 50% decrease in the rate of substrate hydrolysis was predicted by linear regression after plotting the relative rates of hydrolysis (compared to the uninhibited control) versus the log of the peptide concentration. The enzyme concentration was 0.5 nM and substrate concentration was 140 μM.
For the molecule B1, the Ki was less than 100 µM.

As to B2, the Ki is less than 100 µM.

Molecule B3 had a Ki of less than 100 µM.

As for B4, the Ki was less than 100 µM.

Molecule B5 came in with a Ki of less than 100 µM.

The molecule B6 came in with a Ki of less than 100 µM.

On to B7, for which the Ki was less than 100 µM.

In the case of B8, the Ki is less than 100 µM.

In turn, B9 came in with a Ki of less than 100 µM.

As to B10, the Ki is less than 100 µM.

In turn, B11 gave a Ki of less than 100 µM.

B12 returned a Ki of less than 100 µM.

Consider B13, for which the Ki is less than 100 µM.

Regarding B14, the Ki was less than 100 µM.

B15 registered a Ki of less than 100 µM.

Molecule B16 came in with a Ki of less than 100 µM.

B17 showed a Ki of less than 100 µM.

Molecule B18 yielded a Ki of less than 100 µM.

For B19, the Ki is less than 100 µM.

On to B20, for which the Ki was less than 100 µM.

As to B21, the Ki is less than 100 µM.

B22 displayed a Ki of less than 100 µM.

As to B23, the Ki was less than 100 µM.

B24: the Ki is less than 100 µM.

As for B25, the Ki was less than 100 µM.

B26 showed a Ki of less than 100 µM.

In turn, B27 showed a Ki of less than 100 µM.

Regarding B28, the Ki is less than 100 µM.

The molecule B29 gave a Ki of less than 100 µM.

Molecule B30 showed a Ki of less than 100 µM.

As for B31, the Ki was less than 100 µM.

Turning to B32, the Ki was less than 100 µM.

B33 yielded a Ki of less than 100 µM.

Take B34: the Ki was less than 100 µM.

In turn, B35 gave a Ki of less than 100 µM.

As for B36, the Ki was less than 100 µM.

B37 gave a Ki of less than 100 µM.

In the case of B38, the Ki is less than 100 µM.

B39 showed a Ki of less than 100 µM.

Turning to B40, the inhibition constant (Ki) is less than 100 µM.

As to B41, the Ki was less than 100 µM.

Take B42: the Ki was less than 100 µM.

For B43, the Ki was less than 100 µM.

B44 gave a Ki of less than 100 µM.

In the case of B45, the Ki was less than 100 µM.

With B46, the inhibitory constant (Ki) was less than 100 µM.

B47 yielded a Ki of less than 100 µM.

As for B48, the Ki is less than 100 µM.

B49 registered a Ki of less than 100 µM.

On to B50, for which the Ki was less than 100 µM.
